B1: Pistol ribozyme (parent)
chain: GGGUCGUUGUUCCAUAAUCGCGUGGAUAUGGCACGCAAGUUUCUACCGGGCACCGUAAAUGUCCGACUGGAGCCGUUCGGGCGGCUAUAAACAGACCUCAGGCCCGAAGCGUGGCGGCACCUGCCGCCGGUGGUAAAAAAGAUCGGAAGAGCACACGUCU

The text below walks through data of the RNAGym collection of RNA variant scans (doi:10.1021/acssynbio.7b00057).

This data set covers variants of B1. The experiment in a line: aptazyme ON/OFF ratio, guanine; higher = stronger switching; co-transcriptional cleavage with and without guanine.
In the case of GGGUCGUUCGUAUAUAAUCGCGUGGAUAUGGCACGCAAGUUUCUACCGGGCACCGUAAAUGUCCGACUGGAGCCGUUCGGGCGGCUAUAAACAGACCUCAGGCCCGAAGCGUGGCGGCACCUGCCGCCGGUGGUAAAAAAGAUCGGAAGAGCACACGUCU [G9C U10G C12A C13U], the “aptazyme ON/OFF ratio” value was determined as 1.32.

Consider GGGUCGUUCGUAAAUAAUCGCGUGGAUAUGGCACGCAAGUUUCUACCGGGCACCGUAAAUGUCCGACUGGAGCCGUUCGGGCGGCUAUAAACAGACCUCAGGCCCGAAGCGUGGCGGCACCUGCCGCCGGUGGUAAAAAAGAUCGGAAGAGCACACGUCU [G9C U10G C12A C13A], for which the “aptazyme ON/OFF ratio” value worked out at 1.15.

Turning to GGGUCGUUCGUAGAUAAUCGCGUGGAUAUGGCACGCAAGUUUCUACCGGGCACCGUAAAUGUCCGACUGGAGCCGUUCGGGCGGCUAUAAACAGACCUCAGGCCCGAAGCGUGGCGGCACCUGCCGCCGGUGGUAAAAAAGAUCGGAAGAGCACACGUCU [G9C U10G C12A C13G], the “aptazyme ON/OFF ratio” value is 1.11.

Regarding GGGUCGUUCGUUGAUAAUCGCGUGGAUAUGGCACGCAAGUUUCUACCGGGCACCGUAAAUGUCCGACUGGAGCCGUUCGGGCGGCUAUAAACAGACCUCAGGCCCGAAGCGUGGCGGCACCUGCCGCCGGUGGUAAAAAAGAUCGGAAGAGCACACGUCU [G9C U10G C12U C13G], the “aptazyme ON/OFF ratio” value was 1.15.

Turning to GGGUCGUUCGUUAAUAAUCGCGUGGAUAUGGCACGCAAGUUUCUACCGGGCACCGUAAAUGUCCGACUGGAGCCGUUCGGGCGGCUAUAAACAGACCUCAGGCCCGAAGCGUGGCGGCACCUGCCGCCGGUGGUAAAAAAGAUCGGAAGAGCACACGUCU [G9C U10G C12U C13A], the “aptazyme ON/OFF ratio” value was 1.15.

As to GGGUCGUUCGUUUAUAAUCGCGUGGAUAUGGCACGCAAGUUUCUACCGGGCACCGUAAAUGUCCGACUGGAGCCGUUCGGGCGGCUAUAAACAGACCUCAGGCCCGAAGCGUGGCGGCACCUGCCGCCGGUGGUAAAAAAGAUCGGAAGAGCACACGUCU [G9C U10G C12U C13U], the “aptazyme ON/OFF ratio” value was 1.22.

On to GGGUCGUUCGUGAAUAAUCGCGUGGAUAUGGCACGCAAGUUUCUACCGGGCACCGUAAAUGUCCGACUGGAGCCGUUCGGGCGGCUAUAAACAGACCUCAGGCCCGAAGCGUGGCGGCACCUGCCGCCGGUGGUAAAAAAGAUCGGAAGAGCACACGUCU [G9C U10G C12G C13A], for which the “aptazyme ON/OFF ratio” value turned out to be 1.22.

With GGGUCGUUCGUGUAUAAUCGCGUGGAUAUGGCACGCAAGUUUCUACCGGGCACCGUAAAUGUCCGACUGGAGCCGUUCGGGCGGCUAUAAACAGACCUCAGGCCCGAAGCGUGGCGGCACCUGCCGCCGGUGGUAAAAAAGAUCGGAAGAGCACACGUCU [G9C U10G C12G C13U], the “aptazyme ON/OFF ratio” value was 1.05.

Consider GGGUCGUUCGUGGAUAAUCGCGUGGAUAUGGCACGCAAGUUUCUACCGGGCACCGUAAAUGUCCGACUGGAGCCGUUCGGGCGGCUAUAAACAGACCUCAGGCCCGAAGCGUGGCGGCACCUGCCGCCGGUGGUAAAAAAGAUCGGAAGAGCACACGUCU [G9C U10G C12G C13G], for which the “aptazyme ON/OFF ratio” value worked out at 1.14.

For GGGUCGUUCGAAAAUAAUCGCGUGGAUAUGGCACGCAAGUUUCUACCGGGCACCGUAAAUGUCCGACUGGAGCCGUUCGGGCGGCUAUAAACAGACCUCAGGCCCGAAGCGUGGCGGCACCUGCCGCCGGUGGUAAAAAAGAUCGGAAGAGCACACGUCU [G9C U10G U11A C12A C13A], the “aptazyme ON/OFF ratio” value is 1.23.

For the variant GGGUCGUUCGUCAAUAAUCGCGUGGAUAUGGCACGCAAGUUUCUACCGGGCACCGUAAAUGUCCGACUGGAGCCGUUCGGGCGGCUAUAAACAGACCUCAGGCCCGAAGCGUGGCGGCACCUGCCGCCGGUGGUAAAAAAGAUCGGAAGAGCACACGUCU [G9C U10G C13A], the “aptazyme ON/OFF ratio” value was determined as 1.28.

In the case of GGGUCGUUCGUCUAUAAUCGCGUGGAUAUGGCACGCAAGUUUCUACCGGGCACCGUAAAUGUCCGACUGGAGCCGUUCGGGCGGCUAUAAACAGACCUCAGGCCCGAAGCGUGGCGGCACCUGCCGCCGGUGGUAAAAAAGAUCGGAAGAGCACACGUCU [G9C U10G C13U], the “aptazyme ON/OFF ratio” value came out at 1.49.

With GGGUCGUUCGUCGAUAAUCGCGUGGAUAUGGCACGCAAGUUUCUACCGGGCACCGUAAAUGUCCGACUGGAGCCGUUCGGGCGGCUAUAAACAGACCUCAGGCCCGAAGCGUGGCGGCACCUGCCGCCGGUGGUAAAAAAGAUCGGAAGAGCACACGUCU [G9C U10G C13G], the “aptazyme ON/OFF ratio” value was 1.1.

For the variant GGGUCGUUCGUGCAUAAUCGCGUGGAUAUGGCACGCAAGUUUCUACCGGGCACCGUAAAUGUCCGACUGGAGCCGUUCGGGCGGCUAUAAACAGACCUCAGGCCCGAAGCGUGGCGGCACCUGCCGCCGGUGGUAAAAAAGAUCGGAAGAGCACACGUCU [G9C U10G C12G], the “aptazyme ON/OFF ratio” value was 1.19.

Regarding GGGUCGUUCGUACAUAAUCGCGUGGAUAUGGCACGCAAGUUUCUACCGGGCACCGUAAAUGUCCGACUGGAGCCGUUCGGGCGGCUAUAAACAGACCUCAGGCCCGAAGCGUGGCGGCACCUGCCGCCGGUGGUAAAAAAGAUCGGAAGAGCACACGUCU [G9C U10G C12A], the “aptazyme ON/OFF ratio” value worked out at 1.3.

Take GGGUCGUUCGUUCAUAAUCGCGUGGAUAUGGCACGCAAGUUUCUACCGGGCACCGUAAAUGUCCGACUGGAGCCGUUCGGGCGGCUAUAAACAGACCUCAGGCCCGAAGCGUGGCGGCACCUGCCGCCGGUGGUAAAAAAGAUCGGAAGAGCACACGUCU [G9C U10G C12U]: the “aptazyme ON/OFF ratio” value was 1.47.

For the variant GGGUCGUUCGAACAUAAUCGCGUGGAUAUGGCACGCAAGUUUCUACCGGGCACCGUAAAUGUCCGACUGGAGCCGUUCGGGCGGCUAUAAACAGACCUCAGGCCCGAAGCGUGGCGGCACCUGCCGCCGGUGGUAAAAAAGAUCGGAAGAGCACACGUCU [G9C U10G U11A C12A], the “aptazyme ON/OFF ratio” value came to 1.31.

Take GGGUCGUUCGACCAUAAUCGCGUGGAUAUGGCACGCAAGUUUCUACCGGGCACCGUAAAUGUCCGACUGGAGCCGUUCGGGCGGCUAUAAACAGACCUCAGGCCCGAAGCGUGGCGGCACCUGCCGCCGGUGGUAAAAAAGAUCGGAAGAGCACACGUCU [G9C U10G U11A]: the “aptazyme ON/OFF ratio” value came to 1.08.
